Patent publication US20210017279A1 (NANJING LEGEND BIOTECH, published 2021)
Where “and” joins values, the source holds several entries; their conditions need not be identical. Equal entries are not always repeated. Where two headings read alike, the source gives them in different places.

T1: LAG-3-Fc (human, UniProt P18627 29-450, biotinylated (in the blocking assays))
T1 construct: Recombinant LAG-3-Fc (Acrobiosystems / R&D Systems); also called biotinylated LAG-3-Fc protein; not shown: Fc part
T1 sequence: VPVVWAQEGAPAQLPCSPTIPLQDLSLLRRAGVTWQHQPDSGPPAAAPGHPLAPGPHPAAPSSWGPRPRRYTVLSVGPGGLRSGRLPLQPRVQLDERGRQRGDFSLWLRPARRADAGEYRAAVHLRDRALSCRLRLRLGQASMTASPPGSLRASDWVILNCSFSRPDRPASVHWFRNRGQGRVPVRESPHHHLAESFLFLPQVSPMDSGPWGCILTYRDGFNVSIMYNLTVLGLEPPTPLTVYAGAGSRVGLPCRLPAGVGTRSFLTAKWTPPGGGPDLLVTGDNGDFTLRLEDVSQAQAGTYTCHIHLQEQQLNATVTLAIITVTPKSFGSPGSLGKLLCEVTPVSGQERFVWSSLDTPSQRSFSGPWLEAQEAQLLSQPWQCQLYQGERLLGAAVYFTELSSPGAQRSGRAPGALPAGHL

T2: human LAG-3 expressed on CHO-K1 cells (human, UniProt P18627 29-525)
T2 construct: also called CHO-huLAG-3 cells; LAG-3 expressed on CHO cells
T2 sequence: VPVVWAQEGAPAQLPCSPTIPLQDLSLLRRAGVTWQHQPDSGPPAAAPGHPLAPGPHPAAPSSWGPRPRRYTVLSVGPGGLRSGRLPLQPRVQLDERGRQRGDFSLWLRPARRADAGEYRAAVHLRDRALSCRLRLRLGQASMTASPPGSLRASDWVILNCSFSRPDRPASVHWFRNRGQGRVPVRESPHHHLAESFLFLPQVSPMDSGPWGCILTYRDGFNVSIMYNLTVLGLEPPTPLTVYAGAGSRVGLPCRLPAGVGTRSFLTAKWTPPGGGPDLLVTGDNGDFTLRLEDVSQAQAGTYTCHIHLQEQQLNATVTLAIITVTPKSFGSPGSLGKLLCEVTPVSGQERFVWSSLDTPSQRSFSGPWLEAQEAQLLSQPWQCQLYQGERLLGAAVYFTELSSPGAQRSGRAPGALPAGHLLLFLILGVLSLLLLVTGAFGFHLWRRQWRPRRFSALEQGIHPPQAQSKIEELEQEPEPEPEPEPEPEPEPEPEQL

T3: Human LAG-3-His (human, UniProt P18627 29-450)
T3 construct: Bought recombinant protein; also called Human LAG-3 protein (Acrobiosystem, 772-6BGF2-D5); not shown: His tag
T3 sequence: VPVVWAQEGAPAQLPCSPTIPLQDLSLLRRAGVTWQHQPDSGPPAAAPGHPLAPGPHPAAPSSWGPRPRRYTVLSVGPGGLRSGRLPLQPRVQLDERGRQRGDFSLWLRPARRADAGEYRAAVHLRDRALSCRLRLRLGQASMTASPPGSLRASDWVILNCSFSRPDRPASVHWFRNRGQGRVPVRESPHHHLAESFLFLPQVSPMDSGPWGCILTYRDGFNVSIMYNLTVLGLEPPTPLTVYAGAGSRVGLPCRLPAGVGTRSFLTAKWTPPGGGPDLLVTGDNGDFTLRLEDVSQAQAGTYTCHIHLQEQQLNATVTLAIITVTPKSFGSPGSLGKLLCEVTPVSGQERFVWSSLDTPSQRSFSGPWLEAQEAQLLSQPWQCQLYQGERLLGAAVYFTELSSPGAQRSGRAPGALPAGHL


Columns and labels:
[1] = biological target: T4, Cynomolgus LAG-3-Fc (cynomolgus); assay: SPR (Biacore T200); antibody captured on chip, LAG-3 injected
T4 construct: Bought recombinant protein; also called cynomolgus LAG-3 protein (Acrobiosystem, 2187-71HF1-DZ)
Description: BIACORE™ T200 instrument was utilized to determine the affinity constant (KD) of each anti-LAG-3 antibody (sdAb-Fc fusion protein or mAb format) by SPR. Briefly, anti-LAG-3 antibody was immobilized on the sensor chip through capture antibody (Jackson ImmunoResearch Cat. No.115-005-071) at an appropriate density. […] The data of dissociation rate constant (koff) and association rate constant (kₘ) were obtained using BIACORE™ T200 evaluation software and the affinity constant (KD) were calculated from the ratio of koff to kₘ.

[2] = biological target: T4, Cynomolgus LAG-3-Fc; assay: SPR (Biacore T200); cynomolgus LAG-3 immobilized, antibody injected
Description: BIACORE™ T200 instrument was utilized to determine affinity constant (KD) of each anti-LAG-3 antibody (sdAb-Fc fusion protein or mAb format) by SPR. Briefly, for measuring the affinity against human LAG-3, anti-LAG-3 antibody was immobilized on the sensor chip through capture antibody (Jackson ImmunoResearch Cat.No.115-005-071) at an appropriate density. […] The data of dissociation rate constant (koff) and association rate constant (k₀n) were obtained using BIACORE™ T200 evaluation software and the affinity constant (KD) were calculated from the ratio of koff to kₒₙ.

[3] = biological target: LAG-3 on Thaw-and-Use LAG-3 Effector cells; assay: cell-based or functional assay
[4] = biological target: LAG-3 on Thaw-and-Use LAG-3 Effector cells; assay: cell-based or functional assay; remark: listed apart in the source
[5] = biological target: T5, cynomolgus LAG-3 expressed on CHO-K1 cells (cynomolgus); assay: flow cytometry on CHO-K1 cells expressing cynomolgus LAG-3
T5 construct: whole, on cells
Description: (§1) To determine cell binding EC₅₀, CHO-K1 cells expressing human or cynomolgus LAG-3 were harvested and incubated with anti-LAG-3 sdAb-Fc fusion proteins at gradient concentrations, followed by fluorophore-labeled secondary antibodies against human Fc. […] The samples were then analyzed with flow cytometry. The binding and blocking curves were shown in FIG. 4 and FIG. 5, respectively.

[6] = biological target: T6, PD-1 expressed on CHO cells (UniProt Q15116 25-288, limits assumed); assay: flow cytometry competition; blocks PD-L1 binding to CHO-PD-1 cells; Experiment 2
T6 construct: whole, on cells; also called CHO-PD-1 cells
T6 sequence (Q15116 25-288 limits assumed): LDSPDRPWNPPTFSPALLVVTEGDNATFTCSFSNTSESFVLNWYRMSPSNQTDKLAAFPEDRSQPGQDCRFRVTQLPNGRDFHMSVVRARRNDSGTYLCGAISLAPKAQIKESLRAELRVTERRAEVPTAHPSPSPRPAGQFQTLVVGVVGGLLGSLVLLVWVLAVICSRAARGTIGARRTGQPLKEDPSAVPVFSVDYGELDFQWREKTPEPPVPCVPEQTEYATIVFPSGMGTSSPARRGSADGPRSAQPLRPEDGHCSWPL

[7] = biological target: T6, PD-1 expressed on CHO cells; assay: flow cytometry on CHO cells expressing PD-1; Experiment 2
[8] = biological target: PD-1 in the PD-1 cell based reporter assay; assay: cell-based or functional assay
[9] = biological target: T1, LAG-3-Fc; assay: flow cytometry competition; blocks LAG-3-Fc binding to MHC II on A375 cells; Experiment 2
[10] = biological target: T2, human LAG-3 expressed on CHO-K1 cells; assay: flow cytometry on CHO cells expressing LAG-3; Experiment 2
Description: as §1

[11] = biological target: Human PD-1 (human, UniProt Q15116 25-167, limits assumed); assay: SPR (Biacore T200), as in Example 3; Experiment 2
Human PD-1, sequence (Q15116 25-167 limits assumed): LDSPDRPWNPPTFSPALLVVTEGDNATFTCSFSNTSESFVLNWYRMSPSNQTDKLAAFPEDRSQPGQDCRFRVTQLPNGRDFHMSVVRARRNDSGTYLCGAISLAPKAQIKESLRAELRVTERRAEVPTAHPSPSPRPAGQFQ

[12] = biological target: T3, Human LAG-3-His; assay: SPR (Biacore T200), as in Example 3; Experiment 2

Binder	Kd [1]	Kd [2]	LAG-3 blockade reporter assay EC50 [3]	LAG-3 blockade reporter assay Signal span (% activation) [3]	LAG-3 blockade reporter assay EC50 [4]	EC50 [5]	EC50 [6]	EC50 [7]	PD-1 cell based reporter assay EC50 [8]	EC50 [9]	EC50 [10]	Kd [11]	Kd [12]
BMS-986016 (antibody, human IgG4 S228P, kappa, V domains shown, also called benchmark antibody; positive control anti-LAG-3 monoclonal antibody (Bristol-Myers Squibb)) VH: QVQLQQWGAGLLKPSETLSLTCAVYGGSFSDYYWNWIRQPPGKGLEWIGEINHRGSTNSNPSLKSRVTLSLDTSKNQFSLKLRSVTAADTAVYYCAFGYSDYEYNWFDPWGQGTLVTVSS VL: EIVLTQSPATLSLSPGERATLSCRASQSISSYLAWYQQKPGQAPRLLIYDASNRATGIPARFSGSGSGTDFTLTISSLEPEDFAVYYCQQRSNWPLTFGQGTNLEIKR	1.7 nM	1000 nM	3.82 nM	76.8 % activation	3.29 nM and 3.82 nM	17.6 nM	–	–	–	–	–	–	–
BLP-34 (bispecific antibody, human IgG4 S228P, kappa, also called PD-1 x LAG-3 BABP) heavy: not shown light: EPKSSDKTHTSPPSPEVQLVESGGGLVQPGGSLRLSCAASGYIISSYCMGWFRQAPGKGLEGVAAIDSDGGTSYADSVKGRFTISKDNSKNTLYLQMNSLRAEDTAMYYCAADFCWVDEDRHLYEYNSWGQGTLVTVSSDIQMTQSPSSVSASVGDRVTITCKASQDVDTAVAWYQQKPGKAPKLLIYWASTRHTGVPSRFSGSGSGTDFTLTISSLQPEDFATYYCQQYSTFPWTFGGGTKVEIKRTVAAPSVFIFPPSDEQLKSGTASVVCLLNNFYPREAKVQWKVDNALQSGNSQESVTEQDSKDSTYSLSSTLTLSKADYEKHKVYACEVTHQGLSSPVTKSFNRGEC	–	–	–	–	15.8 nM	–	13.8 nM	12.5 nM	2.77 nM	37.1 nM	3.12 nM	3.1 nM	3.7 nM
BLP-15 (bispecific antibody, human IgG4 S228P, kappa, also called PD-1 x LAG-3 BABP) heavy: not shown light: EVQLVESGGGLVQPGGSLRLSCAASGYTVSSYCMGWFRQAPGKGREGVSAIDSDGSVSYADSVKGRFTISKDNSKNTLYLQMNSLRAEDTAVYFCAADLCWVDQDQGEYNTWGQGTLVTVSSEPKSSDKTHTSPPSPDIQMTQSPSSVSASVGDRVTITCKASQDVDTAVAWYQQKPGKAPKLLIYWASTRHTGVPSRFSGSGSGTDFTLTISSLQPEDFATYYCQQYSTFPWTFGGGTKVEIKRTVAAPSVFIFPPSDEQLKSGTASVVCLLNNFYPREAKVQWKVDNALQSGNSQESVTEQDSKDSTYSLSSTLTLSKADYEKHKVYACEVTHQGLSSPVTKSFNRGEC	–	–	–	–	5.12 nM	–	18.5 nM	13.7 nM	3.32 nM	–	–	4.4 nM	–
BLP-38 (bispecific antibody, human IgG4 S228P, kappa, also called PD-1 x LAG-3 BABP) heavy: not shown light: EPKSSDKTHTSPPSPEVQLVESGGGLVQPGGSLRLSCAASGYTVSSYCMGWFRQAPGKGREGVSAIDSDGSVSYADSVKGRFTISKDNSKNTLYLQMNSLRAEDTAVYFCAADLCWVDQDQGEYNTWGQGTLVTVSSDIQMTQSPSSVSASVGDRVTITCKASQDVDTAVAWYQQKPGKAPKLLIYWASTRHTGVPSRFSGSGSGTDFTLTISSLQPEDFATYYCQQYSTFPWTFGGGTKVEIKRTVAAPSVFIFPPSDEQLKSGTASVVCLLNNFYPREAKVQWKVDNALQSGNSQESVTEQDSKDSTYSLSSTLTLSKADYEKHKVYACEVTHQGLSSPVTKSFNRGEC	–	–	–	–	3.83 nM	–	12.4 nM	8.51 nM	1.25 nM	–	–	2.5 nM	–
BLP-19 (bispecific antibody, human IgG4 S228P, kappa, also called PD-1 x LAG-3 BABP) heavy: not shown light: EVQLVESGGGLVQPGGSLRLSCAASGYTYGGYCMGWFRQAPGKGLEGVSTINSDGSTNYADSVKGRFTISRDNSKNTLYLQMNSLRAEDTAVYYCAVDLAPCWVAGPIEAADFGYWGQGTLVTVSSEPKSSDKTHTSPPSPDIQMTQSPSSVSASVGDRVTITCKASQDVDTAVAWYQQKPGKAPKLLIYWASTRHTGVPSRFSGSGSGTDFTLTISSLQPEDFATYYCQQYSTFPWTFGGGTKVEIKRTVAAPSVFIFPPSDEQLKSGTASVVCLLNNFYPREAKVQWKVDNALQSGNSQESVTEQDSKDSTYSLSSTLTLSKADYEKHKVYACEVTHQGLSSPVTKSFNRGEC	–	–	–	–	1.57 nM	–	21 nM	14.6 nM	3.65 nM	44.6 nM	13.5 nM	4 nM	1.4 nM
